Laboratory results: publication PMC6623548, “Targeting Mannitol Metabolism as an Alternative Antimicrobial Strategy Based on the Structure-Function Study of Mannitol-1-Phosphate Dehydrogenase in Staphylococcus aureus” (mBio, 2019)

Assays:
[1] = test system: O=C(CO)[C@@H](O)[C@H](O)[C@H](O)COP(=O)(O)O; experiment: purified protein; conditions: NADH active site; phosphate moiety at Arg287 and Arg294 (docking, supported by mutants)
[2] = test system: O=P(O)(O)OC[C@@H](O)[C@@H](O)[C@H](O)[C@H](O)CO; experiment: purified protein; conditions: NAD+ active site; phosphate moiety at Arg287 and Arg294 (docking, supported by mutants)
[3] = molecular target: T1, mannitol-1-phosphate dehydrogenase (SaM1PDH) (Staphylococcus aureus, UniProt Q2FEX4); experiment: F6P reductase activity, NADH absorbance, Lineweaver-Burk kinetics; type: biochemical
T1 construct: gene mtlD

Row | Compound | Km [1] | Km [2] | Ki [3]
1 | mannitol-1-phosphate dehydrogenase (SaM1PDH) (Staphylococcus aureus subsp. aureus USA300) | 88.6 µM | 188 µM | 
2 | Cc1c(O)c(O)cc2c1CC=C1[C@@]2(C)CC[C@@]2(C)[C@@H]3C[C@](C)(C(=O)O)CC[C@]3(C)CC[C@]12C [DHCL, dihydrocelastrol] |  |  | 4 µM
